Measurements published in US20200347130A1 (JIANGSU HENGRUI MEDICINE, published 2020).

T1: CD96 extracellular region with His tag (CD96-His) (human, UniProt P40200 22-519)
T1 construct: also called CD96-ECD-His; Bio-CD96-His (biotin-labelled form)
T1 sequence: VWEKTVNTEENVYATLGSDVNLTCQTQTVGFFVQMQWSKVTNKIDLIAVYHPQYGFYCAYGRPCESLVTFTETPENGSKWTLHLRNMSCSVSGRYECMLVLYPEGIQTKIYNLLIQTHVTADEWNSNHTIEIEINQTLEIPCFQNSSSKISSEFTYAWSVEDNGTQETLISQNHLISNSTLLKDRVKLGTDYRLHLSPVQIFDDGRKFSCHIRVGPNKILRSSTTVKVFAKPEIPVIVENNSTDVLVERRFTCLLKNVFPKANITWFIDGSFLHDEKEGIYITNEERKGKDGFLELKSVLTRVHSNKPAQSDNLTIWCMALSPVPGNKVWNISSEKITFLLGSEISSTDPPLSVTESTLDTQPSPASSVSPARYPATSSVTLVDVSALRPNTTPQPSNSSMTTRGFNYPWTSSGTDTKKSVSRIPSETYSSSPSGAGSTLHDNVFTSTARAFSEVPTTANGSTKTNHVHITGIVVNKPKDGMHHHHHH

T2: Full-length human CD96 on CHO-S cells (human, UniProt P40200 22-585)
T2 construct: also called CD96-CHOs; hCD96-CHOs
T2 sequence: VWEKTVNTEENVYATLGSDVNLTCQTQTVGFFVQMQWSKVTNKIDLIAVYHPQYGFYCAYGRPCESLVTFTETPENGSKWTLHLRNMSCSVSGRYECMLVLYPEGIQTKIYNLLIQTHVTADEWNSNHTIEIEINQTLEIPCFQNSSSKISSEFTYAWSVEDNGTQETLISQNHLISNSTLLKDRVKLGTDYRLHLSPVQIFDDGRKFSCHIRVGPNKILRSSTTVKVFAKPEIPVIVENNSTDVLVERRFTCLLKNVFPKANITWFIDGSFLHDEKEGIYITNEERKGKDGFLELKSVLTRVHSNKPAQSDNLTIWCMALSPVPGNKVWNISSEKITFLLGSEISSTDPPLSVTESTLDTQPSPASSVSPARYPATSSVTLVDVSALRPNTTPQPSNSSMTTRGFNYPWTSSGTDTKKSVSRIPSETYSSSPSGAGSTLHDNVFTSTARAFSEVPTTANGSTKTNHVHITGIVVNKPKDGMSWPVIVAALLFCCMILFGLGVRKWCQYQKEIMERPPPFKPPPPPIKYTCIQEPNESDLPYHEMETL


Columns and labels:
[1] = target: T1, CD96 extracellular region with His tag …; test: ELISA, CD96-His coated
Description: The binding capacity of the anti-CD96 antibody was tested by ELISA to determine the binding of the antibody to human CD96 protein. The His-tagged CD96 fusion protein was used to coat the microtiter plate, and the intensity of the signal after adding with the antibody was used for evaluating the binding activity of the antibody and CD96. The specific experimental method is as follows:
CD96-His with the sequence of SEQ ID NO: 4 prepared in Embodiment 1 was diluted to a concentration of 2 μg/ml with PBS buffer (Shanghai Yuanpei Biotechnology Co., Ltd. Cat No. B320), pH 7.4, added to a 96-well microtiter plate (Corning, Cat No. CLS3590-100EA) at a volume of 50 μl/well, and placed in an incubator at 37° C. for 2 hours. After discarding the liquid, 250 μl/well of 5% skim milk (BD, Cat No. 232100) blocking solution diluted with PBS was added, and the plate was incubated at 37° C. for 2.5 hours or at 4° C. overnight (16-18 hours) for blocking. After blocking, the blocking solution was discarded, and the plate was washed 4 times with PBST buffer (pH 7.4 PBS containing 0.05% tween-20). 50 μl/well of different concentrations of the antibodies to be tested (hybridoma purification antibody or humanized antibody) diluted with sample dilution was added, and the plate was incubated in an incubator at 37° C. for 1 hour. […] After washing the plate 4 times with PBST, 50 μl/well of TMB chromogenic substrate (KPL, Cat No. 52-00-03) was added, and the plate was incubated at room temperature for 5-15 minutes, followed by adding 50 μl/well of 1M H₂SO₄ to stop the reaction. The absorption value was read at 450 nm with a NOVOStar microplate reader, and the EC50 value of the binding of CD96 antibody to human CD96 was calculated (see Table 13).

[2] = target: T2, Full-length human CD96 on CHO-S cells; test: cell ELISA, fixed CD96-overexpressing CHO-S cells
Description: The binding capacity of the anti-CD96 antibody was tested by binding experiments of the antibody to human CD96 protein overexpressing CHO-S cells. The full-length CD96 plasmid was transfected into CHO-S cells by electrotransfection, and cells were then screened for two weeks under pressure for the detection of the expression of CD96. After the over-expressing cells were fixed at the bottom of the 96-well plate, the density of the signal after adding the antibody was used to judge the binding activity of the antibody to CD96 overexpressing CHO-S cells. The specific experimental method is as follows:
The cells were seeded at a density of 9×10⁴/100 μL/well in a 96-well plate and cultured overnight. After aspirating the supernatant, the plate was washed once with PBS, subsequently, 100 μl/well immunostaining fixation solution (Biyuntian, P0098) was added and fixed for one hour at room temperature, and the plate was washed three times with PBS. Once the liquid was discarded, 250 μl/well of 5% skim milk (BD, 232100) blocking solution diluted with PBS was added, and the plate was blocked in an incubator at 37° C. for 2.5 hours. After blocking, the blocking solution was discarded, the plate was washed 4 times with PBST buffer (pH 7.4 PBS containing 0.05% tween-20), followed by diluting 50 μl/well of different concentrations of the antibodies (hybridoma purification antibody or humanized antibody) to be tested the plate was incubated in an incubator at 37° C. for 2 hours. After incubation, the plate was wash 4 times with PBST. […] After washing the plate 4 times with PBST, 50 μl/well of TMB chromogenic substrate (KPL, Cat No. 52-00-03) was added, the plate was incubated at room temperature for 10-25 min, followed by adding 50 μl/well of 1M H₂SO₄ to stop the reaction. The absorption value was read at 450 nm with a NOVOStar microplate reader, and the EC50 value of the CD96 antibodies to CD96 overexpressing CHO-S cells was calculated (see FIG. 1 and Table 15).

[3] = target: T1, CD96 extracellular region with His tag …; test: SPR (Biacore), antibody captured, CD96-ECD-His as mobile phase
Source text: Protein A biosensor chip was used to capture antibodies to be tested, then CD96 antigen was flowed on the surface of the chip, and real time reaction signal was detected by Biacore to obtain the binding and dissociation curve. After the dissociation of each experimental cycle was completed, the biosensor chip was washed and regenerated with a glycine-hydrochloric acid regeneration solution (pH 1.5).

EC50 [1] [nM]	EC50 [2] [nM]	Kd [3] [nM]	Binder
–	–	0.781	h1722-012 (antibody, V domains shown, Only variable regions are tied to this name) VH: EVQLVQSGAEVKKPGSSVKVSCKASGNTFSDYWMHWVKQAPGQGLEWIGMLHPNSGTTSFNEKFKIRTTITIDKSTSTAYMELSSLRSEDTAVYYCASDYSGPFAYWGQGTLVTVSS VL: DIQLTQSPSSLSASVGDRVTITCSASSSVNYIHWYQQKPGKAPKRWIFDTSKLASGVPSRFSGSGSGTDYTLTISSLQPEDFATYYCQQWRSNPLTFGQGTKLEIK
–	–	0.948	h1722-011 (antibody, V domains shown, Only variable regions are tied to this name) VH: EVQLVQSGAEVKKPGSSVKVSCKASGGTFSDYWMHWVKQAPGQGLEWIGMLHPNSGTTSFNEKFKIRVTITIDKSTSTAYMELSSLRSEDTAVYYCASDYSGPFAYWGQGTLVTVSS VL: DIQLTQSPSSLSASVGDRVTITCSASSSVNYIHWYQQKPGKAPKRWIFDTSKLASGVPSRFSGSGSGTDYTLTISSLQPEDFATYYCQQWRSNPLTFGQGTKLEIK

The next lines start with the binder.

Binder	EC50 [1] [nM]	EC50 [2] [nM]	Kd [3] [nM]
h1722-005 (antibody, V domains shown, Only variable regions are tied to this name) VH: EVQLVQSGAEVKKPGSSVKVSCKASGGTFSDYWMHWVRQAPGQGLEWMGMLHPNSGTTSFNEKFKIRVTITADKSTSTAYMELSSLRSEDTAVYYCARDYSGPFAYWGQGTLVTVSS VL: DIQMTQSPSSLSASVGDRVTITCSASSSVNYIHWYQQKPGKAPKRWIYDTSKLASGVPSRFSGSGSGTDFTLTISSLQPEDFATYYCQQWRSNPLTFGQGTKLEIK	0.072	0.045	9.87
h1722-009 (antibody, V domains shown, Only variable regions are tied to this name) VH: EVQLVQSGAEVKKPGSSVKVSCKASGGTFSDYWMHWVRQAPGQGLEWMGMLHPNSGTTSFNEKFKIRVTITADKSTSTAYMELSSLRSEDTAVYYCARDYSGPFAYWGQGTLVTVSS VL: DIQLTQSPSSLSASVGDRVTITCSASSSVNYIHWYQQKPGKAPKRWIFDTSKLASGVPSRFSGSGSGTDYTLTISSLQPEDFATYYCQQWRSNPLTFGQGTKLEIK	–	–	4.55
h1719-007 (antibody, V domains shown, Only variable regions are tied to this name) VH: EVTLKESGPVLVKPTETLTLTCTVSGFSLSSYGVSWVRQPPGKGLEWLGVIWGDGNTNYHSVLISRLTISKDTSKSQVVLTLTNMDPVDTATYYCAKQNYYGSRYGYPLDYWGQGTTVTVSS VL: DIQMTQSPSSVSASVGDRVTITCKATQDVGTAVAWYQQKPGKAPKLLIYWASTRHTGVPSRFSGSGSGTDFTLTISSLQPEDFATYYCQQYGSSVLTFGGGTKVEIK	–	–	25.5
h1719-008 (antibody, V domains shown, Only variable regions are tied to this name) VH: EVTLKESGPVLVKPTETLTLTCTVSGFSLSSYGVSWVRQPPGKGLEWLGVIWGDGNTNYHSVLISRLTISKDTSKSQVVLTLTNMDPVDTATYYCAKNYYYGSRYGYPLDYWGQGTTVTVSS VL: DIQMTQSPSSVSASVGDRVTITCKATQDVGTAVAWYQQKPGKAPKLLIYWASTRHTGVPSRFSGSGSGTDFTLTISSLQPEDFATYYCQQYGSSVLTFGGGTKVEIK	–	–	17.6
h1719-013 (antibody, V domains shown, Only variable regions are tied to this name) VH: EVTLKESGPVLVKPTETLTLTCTVSGFSLSSYGVSWVRQPPGKGLEWLGVIWGDGNTNYHSVLISRLTISKDTSKSQVVLTLTNMDPVDTATYYCAKQNYYGSRYGYPLDYWGQGTTVTVSS VL: DIQMTQSPSSVSASVGDRVTITCKATQDVGTAVAWYQQKPGKSPKLLIYWASTRHTGVPERFSGSGSGTDFTLTISSLQPEDFATYFCQQYGSSVLTFGGGTKVEIK	–	–	19.8
h1719-016 (antibody, V domains shown, Only variable regions are tied to this name) VH: EVTLKESGPVLVKPTETLTLTCTVSGFSLSSYGVSWVRQPPGKGLEWLGVIWGDGNTNYHSVLISRLTISKDTSKSQVVLTLTNMDPVDTATYYCAKQNYYGSRYGYPIDYWGQGTTVTVSS VL: DIQMTQSPSSVSASVGDRVTITCKATQDVGTAVAWYQQKPGKSPKLLIYWASTRHTGVPERFSGSGSGTDFTLTISSLQPEDFATYFCQQYGSSVLTFGGGTKVEIK	–	–	90.7
